Patent publication US20120076780A1
Like-named read-outs stand apart in the source and are kept apart here. Blank lines part the entries; values can stand above or below the substance they belong to.

Experiments:
[1] = target: ErbB2 on human tumor cells (SKBR3, A431, T47D, MCF7, MDA-MB231) (human) (UniProt P04626); test: whole-cell ELISA on SKBR3 cells, anti-PE detection, after 24 h at 37 C in 100% human serum
[2] = target: ErbB2 on human tumor cells (SKBR3, A431, T47D, MCF7, MDA-MB231) (human) (UniProt P04626); test: cell-based or functional assay
[3] = target: MUC1 on cells (T47D, MCF7, DA3-MUC1) (human) (UniProt P15941); test: whole-cell ELISA on T47D cells; apparent affinity from the half-maximal binding signal
[4] = target: MUC1, secreted isoform from conditioned medium of MUC1-transfected DA3 cells (UniProt P15941); test: ELISA on coated MUC1 conditioned medium; apparent affinity from the half-maximal binding signal
[5] = target: ErbB-1 (EGFR) on human cancer cells (SCC-1, SCC-9, C1-1 clone 3, C1-1 clone 7) (human) (UniProt P00533); test: cell-based or functional assay
[6] = target: ErbB-1 (EGFR) on human cancer cells (SCC-1, SCC-9, C1-1 clone 3, C1-1 clone 7) (human) (UniProt P00533); test: cell-based or functional assay; remark: listed apart in the source
[7] = target: ErbB-1 (EGFR) on human cancer cells (SCC-1, SCC-9, C1-1 clone 3, C1-1 clone 7) (human) (UniProt P00533); test: cell-based or functional assay; remark: listed apart in the source

Substance: chFRP5-ZZ-PE38 immunoconjugate (from UniProt P01857 1-330)
decrease of binding activity [1]: 17%
IC50 (ng/ml), cell killing, MTT assay 48 h, MCF7 cells [2]: 600 ng/mL
IC50 (ng/ml), cell killing, MTT assay 48 h, MDA-MB231 cells [2]: > 10000 ng/mL
IC50 (ng/ml), cell killing, MTT assay 48 h, T47D cells [2]: 1000 ng/mL
IC50 (pM), cell killing, MTT assay, A431 cells [2]: 10 pM
IC50 (pM), cell killing, MTT assay, MCF7 cells [2]: 300 pM

Kd [3]: 0.25 nM
Kd [4]: 0.2 nM
Substance: murine H23 mAb (antibody)

Kd [3]: 0.3 nM
Kd [4]: 0.3 nM
Substance: chimeric H23 IgG1 (from UniProt P01857 1-330) (antibody)

Substance: cetuximab-ZZ-PE38 complex (non-cross linked)
IC50, cell survival, XTT assay, SCC-1 cells [5]: 0.47 ng/mL
percent of SCC-1 cells killed at 0.001 µg/ml of immunotoxin complex [5]: 80%
IC50, cell survival, XTT assay, SCC-1 cells [6]: 0.31 ng/mL
IC50, cell survival, XTT assay, C1-1 prostate cancer cells clone 3 [7]: 12 ng/mL
IC50, cell survival, XTT assay, C1-1 prostate cancer cells clone 7 [7]: 38 ng/mL
IC50, cell survival, XTT assay, SCC-1 cells [7]: 0.261 ng/mL
IC50, cell survival, XTT assay, SCC-9 cells [7]: 0.073 ng/mL

Substance: cross-linked cetuximab-ZZ-PE38 immunotoxin complex
IC50, cell survival, XTT assay, SCC-1 cells [6]: 7.54 ng/mL

Substance: scFv(FRP5)-ETA
IC50 (pM), cell killing, MTT assay, A431 cells [2]: 52 pM
